Reference: US20060194276A1 (GOVERMMENT OF THE USA AS REPRESENTED BY THE SECRETARY OF …, published 2006)

Molecular target: T1, human CD22 (human, UniProt P20273 20-847)
T1 construct: whole, on cells; Always presented on living CD22+ tumor cells (Raji for all numbers); also called CD22 antigen; target antigen
T1 sequence (looked up): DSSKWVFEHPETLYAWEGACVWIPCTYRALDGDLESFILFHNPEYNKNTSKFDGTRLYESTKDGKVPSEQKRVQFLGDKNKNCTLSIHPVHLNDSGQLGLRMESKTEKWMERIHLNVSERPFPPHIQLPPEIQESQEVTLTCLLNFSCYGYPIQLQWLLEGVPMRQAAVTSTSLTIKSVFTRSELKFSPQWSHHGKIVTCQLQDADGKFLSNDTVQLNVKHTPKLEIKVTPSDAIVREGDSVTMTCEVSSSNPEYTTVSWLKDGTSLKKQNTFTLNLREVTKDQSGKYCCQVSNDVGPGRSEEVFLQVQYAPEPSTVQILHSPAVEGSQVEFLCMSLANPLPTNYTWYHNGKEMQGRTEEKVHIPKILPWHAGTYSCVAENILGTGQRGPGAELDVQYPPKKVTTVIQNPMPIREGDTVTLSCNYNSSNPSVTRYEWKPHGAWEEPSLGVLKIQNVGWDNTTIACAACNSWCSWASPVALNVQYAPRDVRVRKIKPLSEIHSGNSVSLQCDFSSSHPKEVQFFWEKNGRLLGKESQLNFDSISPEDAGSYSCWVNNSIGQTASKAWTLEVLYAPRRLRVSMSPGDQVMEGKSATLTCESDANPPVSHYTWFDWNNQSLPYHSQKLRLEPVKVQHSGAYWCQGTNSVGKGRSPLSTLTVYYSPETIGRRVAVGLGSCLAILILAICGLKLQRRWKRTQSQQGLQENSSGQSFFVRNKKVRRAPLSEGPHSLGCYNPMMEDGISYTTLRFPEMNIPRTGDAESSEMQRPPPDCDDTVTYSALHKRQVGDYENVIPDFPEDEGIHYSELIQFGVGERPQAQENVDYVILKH
Experiment: flow cytometry on CD22+ Raji cells, equilibrium binding, non-linear regression
Method: Specific binding of the constructs was determined by flow cytometry using the human CD22⁺ B cell lines Raji, Ramos, Daudi and CA46. Human T cell lines Jurkat and HUT102 were used as negative controls. Cells (5×10⁵) were incubated with 100 μl of a sample containing either the scFv fragments, or control antibodies, in FACS buffer (PBS, 0.1% NaN₃, 2% FBS) for 45 min at 4° C. in round bottom 96-well microtiter plates. Cells were pelleted at 200 g at 4° C. for 5 min and washed twice with 200 μl FACS buffer. […] Background fluorescence was determined by using cells incubated with 9E10 antibody and FITC-labeled anti-mouse antibody under the same conditions. Stained cells were analyzed on a FACScan Flow Cytometer (BD Bioscience, San Jose, Calif.), and median fluorescence intensity (MFI) was calculated using the CellQuest™ software (BD Bioscience).
Affinity measurements were performed as previously described (Benedict et al., J Immunol Methods 201:223-231, 1997) with the following modifications: Varying concentrations of antibodies were incubated in triplicate with 5×10⁵ Raji cells at room temperature in FACS buffer for two hours. Bound antibodies were detected under the same conditions, as described above. After two final washing steps, cells were fixed in PBS containing 2% paraformaldehyde for 15 minutes at room temperature and analyzed by flow cytometry. […]

Kd: 2 nM
B1: murine monoclonal antibody RFB4 (antibody, V domains shown)
VH: EVQLVESGGGLVKPGGSLKLSCAASGFAFSIYDMSWVRQTPEKRLEWVAYISSGGGTTYYPDTVKGRFTISRDNAKNTLYLQMSSLKSEDTAMYYCARHSGYGSSYGVLFAYWGQGTLVTVSA
VL: DIQMTQTTSSLSASLGDRVTISCRASQDISNYLNWYQQKPDGTVKLLIYYTSILHSGVPSRFSGSGSGTDYSLTISNLEQEDFATYFCQQGNTLPWTFGGGTKLEIK
notes: also called mAb RFB4; murine mAb RFB4
